Assay results reported in US9845340B2, “Peptides that specifically bind HGF receptor (cMet) and uses thereof” (Dyax Corp., priority 2003, dated 2017).

Tests used:
cMet-Fc fusion protein = cMet-Fc fusion protein (Homo sapiens, UniProt P08581); assay: Protein phage ELISA: peptide-displaying phage binding to soluble cMet-Fc versus TRAIL-Fc; details: phage isolate; cMet-Fc vs. TRAIL-Fc
Method in brief: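 Phage displaying selected peptides were incubated 2 h at room temperature on wells coated with 0.5 μg/mL cMet-Fc, with TRAIL-Fc coating as the unrelated-Fc specificity control.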

[1] = target: T1, 3T3 cells that over-express human cMet (Homo sapiens, UniProt P08581); assay: Whole cell ELISA of peptide-displaying phage; format: cell-based; details: phage isolate; 3T3 cells expressing human cMet vs. non-expressing 3T3 cells
T1 construct: expressed in transfected cells; host or cells: 3T3 cells
Method in brief: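 Phage displaying peptides, pre-blocked 1 h at 37 °C, incubated 1 h at RT on glutaraldehyde-fixed (0.1%, 12 min, 37 °C) cMet-overexpressing 3T3 cells (10^5 per well). Binding read out by HRP anti-M13 antibody after PBST washing.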

cMet-Fc fusion protein, sequence (P08581 25-307 limits assumed): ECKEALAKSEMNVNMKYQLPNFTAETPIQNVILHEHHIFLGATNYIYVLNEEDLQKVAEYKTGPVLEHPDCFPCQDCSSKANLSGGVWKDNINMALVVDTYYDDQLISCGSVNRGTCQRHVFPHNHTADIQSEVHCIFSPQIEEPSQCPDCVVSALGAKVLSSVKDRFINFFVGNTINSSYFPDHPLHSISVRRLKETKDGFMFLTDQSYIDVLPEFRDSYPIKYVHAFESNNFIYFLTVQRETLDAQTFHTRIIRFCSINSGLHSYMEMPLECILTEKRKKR
cMet-Fc fusion protein, sequence (P08581 with tags, fused parts or gaps limits assumed): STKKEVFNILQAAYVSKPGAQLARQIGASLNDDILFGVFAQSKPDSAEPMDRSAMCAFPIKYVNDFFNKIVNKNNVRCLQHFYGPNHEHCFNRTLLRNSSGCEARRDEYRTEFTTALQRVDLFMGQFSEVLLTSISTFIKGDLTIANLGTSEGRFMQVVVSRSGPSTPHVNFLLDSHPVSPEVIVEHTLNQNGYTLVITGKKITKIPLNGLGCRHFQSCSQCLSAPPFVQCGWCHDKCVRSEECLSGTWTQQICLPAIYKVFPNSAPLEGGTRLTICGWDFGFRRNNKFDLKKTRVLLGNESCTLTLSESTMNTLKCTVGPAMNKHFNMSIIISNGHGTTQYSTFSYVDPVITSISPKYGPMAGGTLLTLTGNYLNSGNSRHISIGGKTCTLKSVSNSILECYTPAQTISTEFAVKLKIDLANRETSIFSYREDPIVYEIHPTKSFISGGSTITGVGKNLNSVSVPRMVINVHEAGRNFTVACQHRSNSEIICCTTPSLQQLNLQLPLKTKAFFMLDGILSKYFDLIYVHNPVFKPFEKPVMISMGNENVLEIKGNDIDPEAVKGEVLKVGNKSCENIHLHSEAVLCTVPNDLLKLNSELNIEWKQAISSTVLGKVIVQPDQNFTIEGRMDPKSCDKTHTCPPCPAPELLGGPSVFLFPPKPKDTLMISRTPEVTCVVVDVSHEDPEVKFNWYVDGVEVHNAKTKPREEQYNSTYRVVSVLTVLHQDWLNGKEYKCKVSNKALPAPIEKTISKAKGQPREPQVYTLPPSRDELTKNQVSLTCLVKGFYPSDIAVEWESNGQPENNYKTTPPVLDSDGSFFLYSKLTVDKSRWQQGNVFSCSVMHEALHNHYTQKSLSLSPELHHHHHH
T1 sequence (P08581 25-1390): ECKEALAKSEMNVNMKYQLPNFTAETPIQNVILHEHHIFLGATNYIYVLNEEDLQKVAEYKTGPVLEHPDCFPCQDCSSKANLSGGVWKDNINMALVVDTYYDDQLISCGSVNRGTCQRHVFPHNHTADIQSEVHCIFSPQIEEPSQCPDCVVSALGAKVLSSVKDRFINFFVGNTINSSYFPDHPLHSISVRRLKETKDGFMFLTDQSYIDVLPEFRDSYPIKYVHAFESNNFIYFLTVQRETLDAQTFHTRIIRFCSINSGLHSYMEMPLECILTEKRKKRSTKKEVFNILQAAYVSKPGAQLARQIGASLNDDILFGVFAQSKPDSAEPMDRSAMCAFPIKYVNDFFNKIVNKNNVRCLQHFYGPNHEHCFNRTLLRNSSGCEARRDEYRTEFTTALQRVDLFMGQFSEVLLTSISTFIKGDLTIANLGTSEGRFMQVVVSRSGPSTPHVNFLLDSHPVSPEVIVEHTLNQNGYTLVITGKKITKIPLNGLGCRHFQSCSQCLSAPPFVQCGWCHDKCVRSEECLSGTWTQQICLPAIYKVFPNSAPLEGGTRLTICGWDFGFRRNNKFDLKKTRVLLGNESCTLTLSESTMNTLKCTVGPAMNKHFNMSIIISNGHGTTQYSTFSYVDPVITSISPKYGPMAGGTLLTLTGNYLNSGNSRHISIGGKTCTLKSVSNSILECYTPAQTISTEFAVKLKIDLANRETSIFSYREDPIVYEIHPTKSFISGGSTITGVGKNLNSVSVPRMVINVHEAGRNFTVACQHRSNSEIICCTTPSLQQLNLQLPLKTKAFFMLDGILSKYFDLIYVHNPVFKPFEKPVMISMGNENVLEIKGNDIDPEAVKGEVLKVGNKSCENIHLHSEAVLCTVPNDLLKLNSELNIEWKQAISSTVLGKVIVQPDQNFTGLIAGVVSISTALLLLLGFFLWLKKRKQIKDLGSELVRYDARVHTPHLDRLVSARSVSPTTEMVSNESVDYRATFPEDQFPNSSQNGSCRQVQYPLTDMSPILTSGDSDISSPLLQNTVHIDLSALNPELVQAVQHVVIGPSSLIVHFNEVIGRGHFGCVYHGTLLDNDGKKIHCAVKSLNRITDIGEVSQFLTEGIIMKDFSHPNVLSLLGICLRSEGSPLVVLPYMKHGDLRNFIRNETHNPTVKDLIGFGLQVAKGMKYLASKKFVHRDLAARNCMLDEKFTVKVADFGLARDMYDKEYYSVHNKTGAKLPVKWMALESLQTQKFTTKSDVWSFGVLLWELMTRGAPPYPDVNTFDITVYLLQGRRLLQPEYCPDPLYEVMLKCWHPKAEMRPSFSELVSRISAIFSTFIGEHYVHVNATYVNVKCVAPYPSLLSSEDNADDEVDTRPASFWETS

Protein ELISA (cMet-Fc fusion protein) [fold over background] | WC ELISA [1] [fold over background] | Compound
7.0 | 1.30 | CSCC[C@H](NC(=O)[C@@H]1CCCN1C(=O)[C@H](CO)NC(=O)CNC(=O)[C@@H](NC(=O)[C@H](CCC(N)=O)NC(=O)[C@H](C)NC(C)=O)C(C)C)C(=O)N[C@@H](CC(C)C)C(=O)N1CCC[C@H]1C(=O)N[C@@H](CO)C(=O)N[C@@H](Cc1c[nH]c2ccccc12)C(=O)N[C@@H](Cc1ccccc1)C(=O)N[C@@H](CO)C(=O)N[C@@H](Cc1ccccc1)C(=O)N[C@@H](CCC(=O)O)C(=O)N[C@@H](C)C(=O)N[C@@H](CC(N)=O)C(=O)N[C@@H](Cc1c[nH]c2ccccc12)C(=O)N[C@@H](CO)C(=O)N[C@@H](CO)C(=O)NCC(=O)NCC(=O)NCC(=O)N[C@@H](CCCCNC(=O)c1ccc2c(c1)C(=O)OC21c2ccc(O)cc2Oc2cc(O)ccc21)C(N)=O [SEQ ID NO: 456]
4.3 | 1.33 | GSSARCDELINDFHSCLVMAP (Synthetically generated cMet-binding peptide sequence) [SEQ ID NO: 375]
13.5 | 1.40 | CC[C@H](C)[C@H](NC(=O)[C@H](Cc1c[nH]c2ccccc12)NC(=O)[C@H](Cc1c[nH]cn1)NC(=O)CNC(=O)[C@H](C)NC(C)=O)C(=O)N[C@H]1CSSC[C@@H](C(=O)N[C@@H](CCC(N)=O)C(=O)N[C@@H](Cc2c[nH]c3ccccc23)C(=O)N[C@@H](Cc2c[nH]cn2)C(=O)NCC(=O)N[C@H](C(=O)NCC(=O)NCC(=O)NCC(=O)N[C@@H](CCCCNC(=O)c2ccc3c(c2)C(=O)OC32c3ccc(O)cc3Oc3cc(O)ccc32)C(N)=O)[C@@H](C)O)NC(=O)[C@H](CO)NC(=O)[C@H](Cc2ccccc2)NC(=O)[C@H]([C@@H](C)O)NC(=O)[C@@H]2CCCN2C(=O)[C@@H]2CCCN2C(=O)CNC(=O)[C@H](C(C)C)NC1=O [SEQ ID NO: 071]
3.2 | 1.33 | AGVIVCNLSMMYCLYPGT (Synthetically generated cMet-binding peptide sequence) [SEQ ID NO: 023]
3.1 | 1.23 | AQLFQYLWHDDPQGAFFQLSMW (Synthetically generated cMet-binding peptide sequence) [SEQ ID NO: 483]
4.8 | 1.30 | AGSSPCKGWPTFECYFYGT (Synthetically generated cMet-binding peptide sequence) [SEQ ID NO: 087]
7.0 | 1.30 | GDYYQCQFSKDMYSERCWPYDP (Synthetically generated cMet-binding peptide sequence) [SEQ ID NO: 397]
4.9 | 1.30 | CC[C@H](C)[C@H](NC(=O)[C@H](Cc1c[nH]c2ccccc12)NC(=O)[C@H](CO)NC(=O)CNC(C)=O)C(=O)N[C@H](C(=O)N[C@H]1CSSC[C@@H](C(=O)NCC(=O)N[C@@H](CO)C(=O)N[C@@H](CO)C(=O)N[C@@H](C)C(=O)N2CCC[C@H]2C(=O)NCC(=O)NCC(=O)NCC(=O)N[C@@H](CCCCNC(=O)c2ccc3c(c2)C(=O)OC32c3ccc(O)cc3Oc3cc(O)ccc32)C(N)=O)NC(=O)[C@H](CC(N)=O)NC(=O)[C@H](CC(=O)O)NC(=O)[C@H](Cc2c[nH]c3ccccc23)NC(=O)[C@H](Cc2c[nH]c3ccccc23)NC1=O)[C@@H](C)CC [SEQ ID NO: 001]
4.3 | 1.20 | AQFDRYWHFAWMDVSFSSGQSG (Synthetically generated cMet-binding peptide sequence) [SEQ ID NO: 465]
3.3 | 1.37 | CC[C@H](C)[C@H](NC(=O)[C@@H](NC(=O)[C@H](CCC(=O)O)NC(=O)CNC(=O)[C@H](Cc1c[nH]c2ccccc12)NC(=O)[C@H](Cc1c[nH]cn1)NC(=O)[C@@H](NC(=O)[C@H](CC(C)C)NC(=O)CNC(=O)[C@H](CC(=O)O)NC(=O)[C@H](Cc1c[nH]cn1)NC(=O)[C@@H]1CCCN1C(=O)[C@H](Cc1c[nH]c2ccccc12)NC(=O)[C@H](CCC(N)=O)NC(=O)[C@H](C)NC(C)=O)C(C)C)C(C)C)C(=O)N[C@@H](CCSC)C(=O)N[C@@H](CC(C)C)C(=O)N[C@@H](CCCNC(=N)N)C(=O)N[C@@H](Cc1ccccc1)C(=O)NCC(=O)NCC(=O)NCC(=O)N[C@@H](CCCCNC(=O)c1ccc2c(c1)C(=O)OC21c2ccc(O)cc2Oc2cc(O)ccc21)C(N)=O [SEQ ID NO: 479]
5.5 | 1.30 | AQRDYLFYWNDGSYQPWQVFVG (Synthetically generated cMet-binding peptide sequence) [SEQ ID NO: 493]
3.5 | 1.30 | CC(=O)N[C@@H](C)C(=O)N[C@@H](CCC(N)=O)C(=O)N[C@@H](Cc1c[nH]cn1)C(=O)N[C@@H](Cc1c[nH]c2ccccc12)C(=O)N[C@@H](CC(=O)O)C(=O)N[C@@H](Cc1ccc(O)cc1)C(=O)N[C@@H](CC(=O)O)C(=O)N[C@@H](CO)C(=O)NCC(=O)N[C@@H](CO)C(=O)N[C@@H](CC(=O)O)C(=O)N[C@@H](Cc1ccccc1)C(=O)N[C@@H](Cc1c[nH]c2ccccc12)C(=O)N[C@@H](Cc1ccccc1)C(=O)N1CCC[C@H]1C(=O)N[C@H](C(=O)N[C@@H](Cc1ccccc1)C(=O)N[C@@H](Cc1ccccc1)C(=O)N[C@@H](CC(C)C)C(=O)N[C@@H](CCC(=O)O)C(=O)N[C@@H](Cc1c[nH]cn1)C(=O)N[C@@H](Cc1c[nH]cn1)C(=O)NCC(=O)NCC(=O)NCC(=O)N[C@@H](CCCCNC(=O)c1ccc2c(c1)C(=O)OC21c2ccc(O)cc2Oc2cc(O)ccc21)C(N)=O)C(C)C [SEQ ID NO: 475]
4.0 | 1.30 | GSSQICAVYLDDTHNCERHAP (Synthetically generated cMet-binding peptide sequence) [SEQ ID NO: 373]
5.6 | 1.30 | AGGFACGPPWDICWMFGT (Synthetically generated cMet-binding peptide sequence) [SEQ ID NO: 011]
4.5 | 1.27 | CC[C@H](C)[C@H](NC(=O)[C@H](Cc1c[nH]cn1)NC(=O)[C@H](CC(C)C)NC(=O)[C@@H](NC(=O)[C@H](CCSC)NC(=O)[C@H](CCSC)NC(=O)[C@H](CCC(N)=O)NC(=O)CNC(=O)[C@H](Cc1ccc(O)cc1)NC(=O)[C@H](CCC(N)=O)NC(=O)[C@H](Cc1c[nH]cn1)NC(=O)[C@H](CCC(N)=O)NC(=O)[C@H](C)NC(C)=O)C(C)C)C(=O)N[C@@H](CCC(N)=O)C(=O)N[C@@H](Cc1ccc(O)cc1)C(=O)N[C@@H](CC(=O)O)C(=O)N[C@@H](CCSC)C(=O)NCC(=O)N[C@@H](CCC(=O)O)C(=O)N[C@@H](Cc1ccccc1)C(=O)N[C@H](C(=O)N1CCC[C@H]1C(=O)NCC(=O)NCC(=O)NCC(=O)N[C@@H](CCCCNC(=O)c1ccc2c(c1)C(=O)OC21c2ccc(O)cc2Oc2cc(O)ccc21)C(N)=O)[C@@H](C)CC [SEQ ID NO: 462]
4.3 | 1.23 | GDPDECQLNRETFEVWCPWHDP (Synthetically generated cMet-binding peptide sequence) [SEQ ID NO: 401]
